Assay [1] concerns the target C3b (human) (UniProt P01024). The assay is described as follows: ELISA; culture supernatant. On the technique in general: In an ELISA, binding on a coated surface is turned into a signal by an enzyme label.
The target of assay [2] is C3b (human) (UniProt P01024). Description: ELISA.
Chain of C3b (human) (P01024 749-1663, chain 1 of 2): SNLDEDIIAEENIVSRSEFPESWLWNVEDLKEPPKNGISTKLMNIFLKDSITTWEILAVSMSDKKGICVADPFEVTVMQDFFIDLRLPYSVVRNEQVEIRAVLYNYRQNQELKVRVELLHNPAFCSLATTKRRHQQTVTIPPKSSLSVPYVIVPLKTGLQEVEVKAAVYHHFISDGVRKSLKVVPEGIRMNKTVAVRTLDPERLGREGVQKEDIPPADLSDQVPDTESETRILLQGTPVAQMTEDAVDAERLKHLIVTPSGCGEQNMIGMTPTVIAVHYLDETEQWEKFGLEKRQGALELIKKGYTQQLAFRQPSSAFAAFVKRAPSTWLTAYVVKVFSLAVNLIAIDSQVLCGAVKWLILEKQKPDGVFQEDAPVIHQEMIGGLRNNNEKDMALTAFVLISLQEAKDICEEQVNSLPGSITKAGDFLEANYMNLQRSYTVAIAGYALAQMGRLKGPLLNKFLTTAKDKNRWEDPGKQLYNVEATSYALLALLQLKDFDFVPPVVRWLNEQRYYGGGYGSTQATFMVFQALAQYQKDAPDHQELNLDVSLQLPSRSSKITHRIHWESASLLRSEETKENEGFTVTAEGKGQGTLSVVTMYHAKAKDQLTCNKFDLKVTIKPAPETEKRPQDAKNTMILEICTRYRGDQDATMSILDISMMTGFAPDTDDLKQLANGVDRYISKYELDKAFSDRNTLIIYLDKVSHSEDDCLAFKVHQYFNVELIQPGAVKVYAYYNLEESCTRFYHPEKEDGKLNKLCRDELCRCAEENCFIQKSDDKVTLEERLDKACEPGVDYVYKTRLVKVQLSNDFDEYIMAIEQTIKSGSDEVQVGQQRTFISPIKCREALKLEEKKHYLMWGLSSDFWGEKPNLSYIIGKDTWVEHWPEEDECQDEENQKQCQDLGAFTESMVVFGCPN
Chain of C3b (human) (P01024 23-667, chain 2 of 2): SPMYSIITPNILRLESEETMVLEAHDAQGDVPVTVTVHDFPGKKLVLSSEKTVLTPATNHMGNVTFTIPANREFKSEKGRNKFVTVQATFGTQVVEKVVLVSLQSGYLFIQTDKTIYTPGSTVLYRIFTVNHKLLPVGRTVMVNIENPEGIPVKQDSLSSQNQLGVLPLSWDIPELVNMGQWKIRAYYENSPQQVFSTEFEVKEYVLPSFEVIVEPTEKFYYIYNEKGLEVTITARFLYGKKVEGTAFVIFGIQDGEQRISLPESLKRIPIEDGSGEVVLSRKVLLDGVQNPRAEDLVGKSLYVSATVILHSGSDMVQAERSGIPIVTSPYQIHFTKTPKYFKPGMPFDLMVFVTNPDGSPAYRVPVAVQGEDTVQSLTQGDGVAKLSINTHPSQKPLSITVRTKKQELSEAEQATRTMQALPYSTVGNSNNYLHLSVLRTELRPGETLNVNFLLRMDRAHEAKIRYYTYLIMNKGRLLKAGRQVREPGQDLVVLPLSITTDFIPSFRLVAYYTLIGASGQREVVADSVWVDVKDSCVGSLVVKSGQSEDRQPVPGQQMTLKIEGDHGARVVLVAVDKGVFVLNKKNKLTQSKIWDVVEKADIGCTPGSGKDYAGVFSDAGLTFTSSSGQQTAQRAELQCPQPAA

By EC50 is commonly meant the midpoint of the concentration-response curve. For the substance “Factor H-like protein 1 (FHL-1) (from UniProt P08603 19-445)”, the concentration giving a half-maximal response (EC50) with C3b (human) [1] was determined as 6.9 nM; with C3b (human) [2], 7.1 nM.

The values above are taken from patent publication US20260116937A1.
